Data reported in patent US7405286B2, “Stars—A muscle-specific actin-binding protein” (The Board of Regents of the University of Texas System, priority 2002, dated 2008).
“Also recorded” adds a separate entry of the source.

Columns and labels:
[1] = tested on: actin; assay: Co-immunoprecipitation of Myc-tagged proteins with actin in COS cells; format: binding; conditions: anti-Myc immunoprecipitation, anti-actin Western blot
Description: Western Blot and Co-immunoprecipitation Assay. Immunoprecipitation and western blot analysis was performed as described previously (Lu et al., 2000). For immunoprecipitation, cells were incubated with 1 μg anti c-myc polyclonal antibody A14 (Santa Cruz). Western blots were performed with anti-actin monoclonal antibody C4 (1:100; Roche Molecular Biochemicals) or anti c-myc monoclonal antibody 9E10 (1:1000; Santa Cruse) followed by incubation with secondary antibody HRP-conjugated anti mouse-IgG (Santa Cruse, Vector). To detect signals, blots were incubated with ECL (Santa Cruz) for 1 min, and exposed to film (Eastman Kodak Co).

[2] = tested on: F-actin; assay: Immunofluorescence / Phalloidin-TRITC staining of transfected COS cells; format: cell-based; conditions: transfected COS cells, Myc-tagged proteins
Description: (§1) Transient Transfections, Reporter Assays and Immunofluorescence Microscopy. COS cells were maintained in DMEM with 10% FBS. Eighteen hours after plating, the medium was changed to serum-free medium and transfections were performed at 50% confluency using FuGENE reagent-6 (Roche Molecular Biochemicals) following manufacturer's instructions. Each transfection used 0.15 μg of plasmid DNA for the reporter assays, and 0.5-1.0 μg immunohistochemistry. Cytochalasin D 2 μM (Sigma-Aldrich), and Y-27632 75 μM (Tocris) were added directly just after transfection. Latrunculin B 0.5 μM (dissolved in 10% ethanol, Calbiochem) was added 12 hr after transfection and 10% ethanol (final concentration 0.01%) was added to control wells. Cells were harvested 36 hr after transfection and their luciferase and β-galactosidase activity were measured.
For measuring immunofluorescence, cells were rinsed with PBS and fixed in 4% paraformaldehyde for 10 min on ice. After rinsing with PBS, COS cells were incubated in 0.1% Triton X-100 in PBS for 5 min on ice. For rat neonatal cardiomyocytes, 1% Triton X-100 in PBS was used. Cells were blocked for 20 min at room temperature in 0.5% BSA in PBS for COS cells and in 1% BSA plus 3% goat serum in PBS for rat cardiomyocytes. Then, cells were incubated with first antibody diluted in 0.5% BSA in PBS for 30-60 min at room temperature or overnight at 4° C. Anti c-myc monoclonal antibody 9E10 (Santa Cruz) was used at a 1:200 dilution. Other antibodies were anti α-actinin monoclonal antibody (1:400; Sigma-Aldrich), α-tubulin antibody (1:2000; Sigma-Aldrich) and anti-vimentin antibody (1:500; Sigma-Aldrich). Secondary antibodies were anti mouse/rabbit IgG FITC or Texas red (Vector) used at a 1:200 dilution incubated with or without Phalloidin-TRITC (1:500; Sigma Aldrich).

[3] = tested on: SM22 promoter; assay: SM22-luciferase reporter assay in transiently transfected COS cells; format: cell-based; conditions: COS cells, STARS and deletion mutants
Description: STARS Expression Plasmids. STARS expression constructs were generated using the pcDNA3.1 mammalian expression vector (Invitrogen) which was modified to contain an amino-terminal Myc-tag. Constitutively active RhoA (L63) and C3 transferase in Prk5 were generously provided by Dr. Alan Hall (University College, London, United Kingdom). The SM22-luciferase reporter 1343 bp promoter has been previously described (Li et al., 1995). The smooth muscle α actin-luciferase reporter contained the 4 kb promoter region ligated into the pBL3basic vector (Promega). The ANF reporter contained the 638 bp promoter region (a generous gift from Dr. Mona Nemer, Universite de Montreal, Montreal, Quebec, Canada). The 4× cfos reporter contained four tandem copies of the cfos CArG box with flanking sequences, as described (Chang et al., 2001). CMV-lacZ (Promega) was used as an internal control for transfection efficiency.
as §1

B1: N101-233: STARS deletion mutant lacking residues from the carboxy-terminus into the conserved region (protein)
chain: VSHIKKKEVSKTVVSKTYERGGDVSHLSHRYERDAGVLEPGQPENDIDRILHSHGSPTRRRKCANLVSELTKGWRVMEQEEPTWRSDSVDTEDSGYGGEAEERPEQDGVQVAVVRIKRPLPSQVNRFTEKLNC
modifications: left off: small tags and cut ends
notes: STARS deletion mutant lacking residues from the carboxy-terminus into the conserved region
co-immunoprecipitation with actin [1]: did not bind actin
association with F-actin / actin stress fibers [2]: did not affect the association with F-actin
bundling of actin stress fibers [2]: abolished the ability of STARS to bundle actin stress fibers

B2: N100: STARS deletion mutant lacking residues from the carboxy-terminus into the conserved region (protein)
chain: MAPGEKESGEGPAKSALRKIRTATLVISLARGWQQWANENSIRQAQEPTGWLPGGTQDSPQAPKPITPPTSHQKAQSAPKSPPRLPEGHGDGQSSEKAPE
modifications: left off: small tags and cut ends
notes: as for B1
co-immunoprecipitation with actin [1]: did not bind actin
association with F-actin / actin stress fibers [2]: did not affect the association with F-actin
bundling of actin stress fibers [2]: abolished the ability of STARS to bundle actin stress fibers

B3: C142: STARS deletion mutant that encoded only the conserved carboxy-terminal region (142 amino acids) (protein)
chain: KAQQKYSPVGNLKGRWQQWADEHIQSQKLNPFSEEFDYELAMSTRLHKGDEGYGRPKEGTKTAERAKRAEEHIYREMMDMCFIICTMARHRRDGKIQVTFGDLFDRYVRISDKVVGILMRARKHGLVDFEGEMLWQGRDDHV
modifications: left off: small tags and cut ends
co-immunoprecipitation with actin [1]: co-immunoprecipitated with actin
activation of SM22-luciferase / SRF transcription, in words [3]: as effective as the full-length protein; also recorded: activate SRF transcription
association with F-actin / actin stress fibers [2]: associated with F-actin
bundling of actin stress fibers [2]: increased stress fibers; also recorded: induce actin bundles

B4: N233: STARS deletion mutant lacking residues from the carboxy-terminus into the conserved region (protein)
chain: MAPGEKESGEGPAKSALRKIRTATLVISLARGWQQWANENSIRQAQEPTGWLPGGTQDSPQAPKPITPPTSHQKAQSAPKSPPRLPEGHGDGQSSEKAPEVSHIKKKEVSKTVVSKTYERGGDVSHLSHRYERDAGVLEPGQPENDIDRILHSHGSPTRRRKCANLVSELTKGWRVMEQEEPTWRSDSVDTEDSGYGGEAEERPEQDGVQVAVVRIKRPLPSQVNRFTEKLNC
modifications: left off: small tags and cut ends
notes: as for B1
co-immunoprecipitation with actin [1]: did not bind actin
association with F-actin / actin stress fibers [2]: did not affect the association with F-actin
bundling of actin stress fibers [2]: abolished the ability of STARS to bundle actin stress fibers
